Five molecules from patent US20230391872A1 (ANAPTYSBIO, published 2023) can be followed below.

In general, EC50 (read off the curve) refers to the midpoint of the concentration-response curve. As a reminder, the Kd is the free concentration of one partner at which half of the binding sites on the other are occupied at equilibrium, for simple one-to-one binding. One may read the koff as a measure of how fast the partners let go of each other. One may read the kon as a measure of how fast the partners come together.

For data set [1], the target named is cynomolgus monkey BTLA on cells (stably transfected 293c18 clone 1G5; cynomolgus peripheral blood T and B cells) (cynomolgus monkey). Put plainly: flow cytometry dot plot, CD3 (PerCP Cy5.5) against BTLA (APC), lysed cynomolgus monkey whole blood, antibody at 33 nM. Background: A flow cytometer gives signals particle by particle.
Data set [2] deals with human BTLA on cells (stably transfected 293c18 cells; human peripheral blood T and B cells) (human) (UniProt Q7Z6A9). The data set is described as follows: flow cytometry (MFI) on gated CD4+ T cells of human PBMC, APC-labelled antibody [left panel (Naive CD4+ T cells].
Data set [3] shares this target. The data set is described as follows: flow cytometry (MFI) on gated CD8+ T cells of human PBMC, APC-labelled antibody [middle panel (Naive CD8+ T cells].
The target of data set [4] is T1, human BTLA ECD-his (monomeric human BTLA-his) (human, UniProt Q7Z6A9 31-157).
T1 construct: extracellular domain; also called human BTLA extracellular domain
T1 sequence (looked up): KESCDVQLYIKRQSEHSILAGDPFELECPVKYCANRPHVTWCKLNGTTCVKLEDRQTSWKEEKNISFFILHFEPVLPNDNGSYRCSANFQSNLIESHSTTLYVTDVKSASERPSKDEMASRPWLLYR
The data set is described as follows: SPR, Biacore T200, antibody captured on anti-human IgG, monomeric human BTLA-his as analyte, 25 °C, 1:1 model; 6G3 IgG1 (APE10585.04) captured on the chip; human BTLA-his analyte. As to the method:
(§1) Surface plasmon resonance (SPR) analyses were carried out using a Biacore T200 (GE Healthcare Life Sciences). Kinetic constants were determined using a 1:1 binding model in the Biacore T200 Evaluation Software to calculate on- and off-rates (kₐ and kd, respectively), and dissociation constants as a measure of overall affinity (KD). Anti-human IgG (GE Healthcare Life Sciences) was immobilized on a CMS chip using EDC-activated amine coupling chemistry (420 seconds contact at a flow rate of 10 μl/min). Antibodies (APE10585.04 6G3 IgG1 and APE10840.05 6G3 IgG4), each at 0.5 μg/m1) were captured in a 60 second contact with the flow cell using a flow rate of 10 μl/min. Monomeric human BTLA-his or cynomolgus monkey BTLA-his at 60 nM, 20 nM, 6.7 nM and 2.2 nM concentrations was flowed over captured antibody (480 seconds association, 1800 seconds dissociation). Runs were at 25° C. and used buffer containing 10 mM HEPES, pH 7.6, 150 mM NaCl, 3 mM EDTA, 0.05% polysorbate 20 (HBS-EP+, pH 7.6; Teknova) for the mobile phase and all dilutions. At the end of each cycle, bound antigen was removed by regeneration with two successive exposures (60 seconds and 90 seconds) to 3 M MgCl2 (30 μl/min). Sensorgrams and binding constants corresponding to the experiment are shown in FIG. 1 (human BTLA) and FIG. 1 (cynomolgus monkey BTLA). […]
On the technique in general: Surface plasmon resonance follows binding to a sensor surface in real time, without labels.

The target in data set [5] is T1, human BTLA ECD-his (monomeric human …). Put plainly: SPR (Biacore T200), antibody captured on anti-human IgG chip, monomeric BTLA-his flowed at 60, 20, 6.7 and 2.2 nM, 1:1 binding model, 25 C [upper left panel (Hu BTLA]. How it is done:
(§2) Surface plasmon resonance (SPR) analyses were carried out using a Biacore T200 (GE Healthcare Life Sciences). Kinetic constants were determined using a 1:1 binding model in the Biacore T200 Evaluation Software to calculate on- and off-rates (kₐ and kd, respectively), and dissociation constants as a measure of overall affinity (KD). Anti-human IgG (GE Healthcare Life Sciences) was immobilized on a CMS chip using EDC-activated amine coupling chemistry (420 seconds contact at a flow rate of 10 μl/min). Antibodies (APE10585.04 6G3 IgG1 and APE10840.05 6G3 IgG4), each at 0.5 μg/m1) were captured in a 60 second contact with the flow cell using a flow rate of 10 μl/min. Monomeric human BTLA-his or cynomolgus monkey BTLA-his at 60 nM, 20 nM, 6.7 nM and 2.2 nM concentrations was flowed over captured antibody (480 seconds association, 1800 seconds dissociation). Runs were at 25° C. and used buffer containing 10 mM HEPES, pH 7.6, 150 mM NaCl, 3 mM EDTA, 0.05% polysorbate 20 (HBS-EP+, pH 7.6; Teknova) for the mobile phase and all dilutions. At the end of each cycle, bound antigen was removed by regeneration with two successive exposures (60 seconds and 90 seconds) to 3 M MgCl2 (30 μl/min). Sensorgrams and binding constants corresponding to the experiment are shown in FIG. 1 (human BTLA) and FIG. 1 (cynomolgus monkey BTLA). Antibody capture levels in resonance units (RU) are listed at the right side of each panel.

Data set [6] addresses T2, cynomolgus monkey BTLA ECD-his (monomeric cynomolgus monkey BTLA-his) (cynomolgus monkey, UniProt A0A2K5W7M7 31-157).
T2 construct: extracellular domain; also called cynomolgus monkey BTLA extracellular domain
T2 sequence: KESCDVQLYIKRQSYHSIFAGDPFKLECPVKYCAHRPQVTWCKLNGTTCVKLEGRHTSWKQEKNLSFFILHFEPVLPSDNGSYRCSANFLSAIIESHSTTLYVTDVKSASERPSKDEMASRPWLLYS
The data set is described as follows: SPR, Biacore T200, antibody captured on anti-human IgG, monomeric cynomolgus monkey BTLA-his as analyte, 25 °C, 1:1 model; 6G3 IgG1 (APE10585.04) captured on the chip; cynomolgus BTLA-his analyte. How it is done: as §1

Data set [7] addresses T2, cynomolgus monkey BTLA ECD-his …. The data set is described as follows: SPR (Biacore T200), antibody captured on anti-human IgG chip, monomeric BTLA-his flowed at 60, 20, 6.7 and 2.2 nM, 1:1 binding model, 25 C [lower left panel (Cyno BTLA]. As to the method: as §2
For data set [8], the target named is T3, purified recombinant BTLA-ECD (Example 19).
T3 sequence (Q7Z6A9 31-157, species assumed, looked up): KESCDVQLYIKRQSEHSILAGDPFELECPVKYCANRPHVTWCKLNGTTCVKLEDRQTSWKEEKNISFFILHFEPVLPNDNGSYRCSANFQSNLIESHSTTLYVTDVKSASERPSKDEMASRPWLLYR

The target of data set [9] is T4, recombinant human BTLA monomer, hBTLA amino acids 31-155 followed by a 6-his tag (human, UniProt Q7Z6A9 31-155).
T4 construct: Antigen of the hydrogen-deuterium exchange experiments
T4 sequence: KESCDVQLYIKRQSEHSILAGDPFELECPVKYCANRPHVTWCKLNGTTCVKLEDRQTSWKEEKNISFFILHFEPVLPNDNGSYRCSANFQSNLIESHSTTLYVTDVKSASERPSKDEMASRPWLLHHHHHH
The data set is described as follows: hydrogen-deuterium exchange with recombinant human BTLA monomer. How it is done: Hydrogen-deuterium exchange mapping of the peptides on BTLA bound by the 6G3 and 10D8 antibodies disclosed herein was performed using recombinant human BTLA monomer. […] FIGS. 7A, 7B, and 7C show a ribbon model of the crystal structure of human BTLA extracellular domain (black) in complex with a space-filling model of the crystal structure of human HVEM extracellular binding domain (light gray) rendered in PyMOL from Protein Data Bank structure (Compaan et al., J. Biol Chem 280: 39553-39561 (2005)). FIG. 7A summarizes a hydrogen-deuterium exchange experiment using the 6G3 antibody (APE12839.05 (H Chain SEQ ID NO: 144, L Chain SEQ ID NO: 174)), FIG. 7B summarizes a hydrogen-deuterium exchange experiment using the 10D8 antibody (APE11482.06), and FIG. 7C summarizes a hydrogen-deuterium exchange experiment using a reference BTLA antagonist antibody (APE10693.17). For each experiment, the BTLA/antibody mixture or BTLA alone was deuterium labeled for 4, 10, or 60 minutes in order to see the exchange kinetics. After incubation, the BTLA protein was subjected to rapid enzymatic proteolysis at acidic pH and the incorporation of deuterium into resulting peptides quantified by liquid chromatography-mass spectrometry.

As to “APC-Mouse Anti-Human CD272 (BTLA) reference antibody, clone J168-540 (BD Biosciences)”, in data set [1], the Q8-2 (percent CD3+ BTLA+ cells) turned out to be 35.8%, the Q8-4 (percent CD3- BTLA+ cells) stood at 28% and the Total BTLA (percent of gated cells BTLA-positive) worked out at 63.9%.
As for “reference anti-BTLA antibody MIH26 (APC-labeled, BioLegend)”, the EC50 (read off the curve) in data set [2] is 2 nM; in data set [3], 3 nM.

B1: 6G3 IgG1 anti-BTLA antibody (APE10585.04) (antibody, V domains shown)
VH: QVQLVQSGAEVKKPGSSVKVSCKASGYVFSTSWMNWVRQAPGQGLEWMGRIYPGDADTNYVGKFKGRVTITADKSTTTAYMELSSLRSEDTAVYFCAKSGTFNFGNYRWYFDVWGKGTTVTVSS
VL: AIQLTQSPSSLSASVGDRVTITCRVSENIYSHLAWYQQKPGKAPKLLIYAATNLALGVPSRFSGSGSGTDYTLTISSLQPEDFATYYCQLFWGPPLTFGGGTKVEIKR
notes: Same variable regions as 6G3 IgG4, in IgG1 format; also called APE10585.x; APE10585.04 6G3 IgG1
For B1, the dissociation constant Kd was approximately 5 nM in data set [4], 3.56 nM in data set [5], approximately 11 nM in data set [6] and 10.8 nM in data set [7]. In addition, the koff in data set [5] was 0.000245 s⁻¹; in [7], 0.00295 s⁻¹. In addition, the kon came out at 68900 M⁻¹ s⁻¹ in data set [5] and 272000 M⁻¹ s⁻¹ in [7].

B2: purified recombinant Proteinase 3 (PR3) (protein)
chain: IVGGHEAQPHSRPYMASLQMRGNPGSHFCGGTLIHPSFVLTAAHCLRDIPQRLVNVVLGAHNVRTQEPTQQHFSVAQVFLNNYDAENKLNDVLLIQLSSPANLSASVATVQLPQQDQPVPHGTQCLAMGWGRVGAHDPPAQVLQELNVTVVTFFCRPHNICTFVPRRKAGICFGDSGGPLICDGIIQGIDSFVIWGCATRLFPDFFTRVALYVDWIRSTLR
Regarding B2, the “proteolytic cleavage after co-incubation up to 60 minutes (gel lanes)” value in data set [8] is on record as “soluble BLTA-ECD was cleaved into multiple smaller fragments”.

B3: 10D8 antibody (APE11482.06) (antibody, V domains shown)
VH: QVQLVQSGAEVKKPGASVKVSCKASGYTLTDYTIHWVRQAPGQRLEWMGWIYPGSGNTKYNDEFKVRVTITRDTSASTAYMELSSLRSEDTAVYYCARRNYYAMEYWGQGTTVTVSS
VL: DIQMTQSPSSLSASVGDRVTITCKASQNVFTNVAWFQQKPGKAPKPLIYSASYRYSGVPSRFSGSGSGTDFTLTISSLQPEDFATYYCQQYSTYPYTFGQGTKLEIKR
In the case of B3, the binding result in [9] is recorded as “binds”.
